Data on ten proteins can be found in patent US11491212.

This data set has as its target Factor X, P00742.

Chain of Factor X, P00742 (P00742 whole entry, looked up): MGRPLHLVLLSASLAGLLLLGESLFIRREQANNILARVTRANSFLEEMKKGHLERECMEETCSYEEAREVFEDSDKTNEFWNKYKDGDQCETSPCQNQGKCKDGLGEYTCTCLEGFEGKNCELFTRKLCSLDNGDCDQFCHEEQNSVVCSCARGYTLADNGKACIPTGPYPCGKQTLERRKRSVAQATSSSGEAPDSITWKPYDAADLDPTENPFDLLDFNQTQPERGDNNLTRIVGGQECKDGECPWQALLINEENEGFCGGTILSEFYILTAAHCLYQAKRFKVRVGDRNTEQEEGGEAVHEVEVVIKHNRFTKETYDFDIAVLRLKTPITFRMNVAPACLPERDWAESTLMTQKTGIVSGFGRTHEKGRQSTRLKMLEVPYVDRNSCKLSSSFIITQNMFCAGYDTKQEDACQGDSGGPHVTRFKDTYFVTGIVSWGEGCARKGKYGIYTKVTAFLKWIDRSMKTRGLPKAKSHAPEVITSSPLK

B1: FIXa K247N/N249S/R338E/T343R/E410N (protein)
chain 1: not shown
chain 2: not shown
Turning to B1, the “% of WT kcat/KM” value stood at 676% and the kcat/KM amounted to 3.1e+08 M⁻¹ s⁻¹.

B2: FIXa-K228N/K247N/N249S/R318Y/R338E/T343R/R403E/E410N (protein)
chain 1: not shown
chain 2: not shown
As for B2, the KM is 0.0251 µM and the kcat/KM stood at 4.1e+08 M⁻¹ s⁻¹.

B3: FIXa K247N/N249S/R338E/T343R/R403E (protein)
chain 1: not shown
chain 2: not shown
Take B3: the “% of WT kcat/KM” value was 1215% and the kcat/KM amounted to 5.6e+08 M⁻¹ s⁻¹.

B4: FIXa-Y155F/K228N/K247N/N249S/R318Y/R338E/T343R/R403E/E410N (protein)
chain 1: not shown
chain 2: not shown
Consider B4, for which the Michaelis-Menten constant (KM) was 0.0368 µM and the kcat/KM came out at 3e+08 M⁻¹ s⁻¹.

B5: FIXa-Y155F/R338E/T343R/R403E (protein)
chain 1: not shown
chain 2: not shown
On to B5, for which the KM is 0.0289 µM and the specificity constant (kcat/KM) amounted to 2e+08 M⁻¹ s⁻¹.

B6: FIXa R338E/T343R/E410N (protein)
chain 1: not shown
chain 2: not shown
In the case of B6, the “% of WT kcat/KM” value worked out at 201% and the catalytic efficiency (kcat/KM) amounted to 9.3e+07 M⁻¹ s⁻¹.

B7: FIXa-R338E/T343R/R403E (protein)
chain 1: not shown
chain 2: not shown
B7: the KM stood at 0.0235 µM and the kcat/KM was found to be 3.1e+08 M⁻¹ s⁻¹.

B8: FIXa Y155F/K247N/N249S/T343R/R403E/E410N (protein)
chain 1: not shown
chain 2: not shown
Regarding B8, the “% of WT kcat/KM” value is 635% and the kcat/KM worked out at 2.9e+08 M⁻¹ s⁻¹.

B9: FIXa-Y155F/N260S/R318Y/R338E/T343R/R403E/E410N (protein)
chain 1: not shown
chain 2: not shown
For the protein B9, the Michaelis constant (KM) came to 0.0402 µM and the kcat/KM stood at 1.5e+08 M⁻¹ s⁻¹.

B10: FIXa Y155F/K247N/N249S/R338E/T343R/E410N (protein)
chain 1: not shown
chain 2: not shown
For the protein B10, the “% of WT kcat/KM” value is recorded as 391% and the kcat/KM is 1.8e+08 M⁻¹ s⁻¹.
